Reference: PMC10467612 (RSC Chemical Biology, 2023)

How the values were obtained:
[1] = tested on: NC(Cc1ccccc1F)C(=O)O; experiment: adenylation saturation kinetics; format: biochemical, Aneurinibacillus migulanus; details: ATP A-domain binding pocket enlarged by W239S
[2] = tested on: NC(Cc1cccc(F)c1)C(=O)O; experiment: adenylation saturation kinetics; format: biochemical, Aneurinibacillus migulanus; details: ATP A-domain binding pocket enlarged by W239S
[3] = molecular target: T1, GrsA (Aneurinibacillus migulanus, UniProt P0C061); experiment: isothermal titration calorimetry; format: binding
T1 sequence (P0C061 1-428 limits assumed): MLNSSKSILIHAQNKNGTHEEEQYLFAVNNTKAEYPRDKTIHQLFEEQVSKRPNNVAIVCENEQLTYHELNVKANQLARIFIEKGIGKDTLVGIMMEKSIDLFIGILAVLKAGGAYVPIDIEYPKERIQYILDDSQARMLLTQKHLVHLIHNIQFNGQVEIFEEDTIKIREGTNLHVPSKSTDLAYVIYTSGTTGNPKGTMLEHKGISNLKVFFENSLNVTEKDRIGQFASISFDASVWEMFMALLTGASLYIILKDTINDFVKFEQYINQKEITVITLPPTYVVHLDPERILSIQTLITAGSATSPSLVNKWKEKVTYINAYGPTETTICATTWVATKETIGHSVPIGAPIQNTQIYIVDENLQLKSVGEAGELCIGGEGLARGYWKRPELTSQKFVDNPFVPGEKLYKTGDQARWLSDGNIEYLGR

[4] = substrate: CC(C)(F)C(N)C(=O)O; experiment: adenylation saturation kinetics; format: biochemical, Bacillus subtilis; details: ATP
[5] = substrate: CC(C)C(N)C(=O)O; experiment: adenylation saturation kinetics; format: biochemical, Bacillus subtilis; details: ATP
[6] = substrate: NC(Cc1cccc(F)c1)C(=O)O; experiment: adenylation saturation kinetics; format: biochemical, Aneurinibacillus migulanus; details: ATP A-domain binding pocket; T-shaped aromatic interaction with Trp239
[7] = substrate: NC(Cc1ccccc1F)C(=O)O; experiment: adenylation saturation kinetics; format: biochemical, Aneurinibacillus migulanus; details: ATP A-domain binding pocket; T-shaped aromatic interaction with Trp239
[8] = substrate: NC(Cc1cc(F)cc(F)c1)C(=O)O; experiment: adenylation saturation kinetics; format: biochemical, Aneurinibacillus migulanus; details: ATP A-domain binding pocket; T-shaped aromatic interaction with Trp239

“GrsA-W239S (Aneurinibacillus migulanus; W239S)” showed a Km [1] of 3000 ± 1000 µM, a kcat [1] of 0.667 ± 0.167 s⁻¹ and a kcat/Km [1] of 267 M⁻¹ s⁻¹. The Km [2] was 900 ± 100 µM, the kcat [2] was 0.233 ± 0.0167 s⁻¹ and the kcat/Km [2] was 250 M⁻¹ s⁻¹.

`NC(Cc1ccccc1)C(=O)O` (racemic) [Phe] gave a Kd [3] of 60 ± 10 µM.

B1: SrfA-B1 (Bacillus subtilis subsp. subtilis str. 168) (protein)
chain: ASTAVVYEGTKLTYRELNAAANRLARKLVEHGLQKGETAAIMNDRSVETVVGMLAVLKAGAAYVPLDPALPGDRLRFMAEDSSVRMVLIGNSYTGQAHQLQVPVLTLDIGFEESEAADNLNLPSAPSDLAYIMYTSGSTGKPKGVMIEHKSILRLVKNAGYVPVTEEDRMAQTGAVSFDAGTFEVFGALLNGAALYPVKKETLLDAKQFAAFLREQSITTMWLTSPLFNQLAAKDAGMFGTLRHLIIGGDALVPHIVSKVKQASPSLSLWNGYGPTENTTFSTSFLIDREYGGSIPIGKPIGNSTAYIMDEQQCLQPIGAPGELCVGGIGVARGYVNLPELTEKQFLEDPFRPGERIYRTGDLARWLPDGNIEFLGRIDNQVKVRGFRIELGEIETKLNMAEHVTEAAVIIRKNKADENEICAYFTADREVAVSELRKTLSQSLPDYMVPAHLIQMDSLPLTPNGKINKKELPAPQSEAVQ
B1 was tested, and the Km [4] was 8000 ± 1000 µM, the kcat [4] was 0.467 ± 0.05 s⁻¹ and the kcat/Km [4] was 58.3 M⁻¹ s⁻¹. For the same molecule, the Km [5] was 60 ± 20 µM, the kcat [5] was 0.133 ± 0.0333 s⁻¹ and the kcat/Km [5] was 2330 M⁻¹ s⁻¹.

B2: GrsA (Aneurinibacillus migulanus) (protein)
chain: MLNSSKSILIHAQNKNGTHEEEQYLFAVNNTKAEYPRDKTIHQLFEEQVSKRPNNVAIVCENEQLTYHELNVKANQLARIFIEKGIGKDTLVGIMMEKSIDLFIGILAVLKAGGAYVPIDIEYPKERIQYILDDSQARMLLTQKHLVHLIHNIQFNGQVEIFEEDTIKIREGTNLHVPSKSTDLAYVIYTSGTTGNPKGTMLEHKGISNLKVFFENSLNVTEKDRIGQFASISFDASVWEMFMALLTGASLYIILKDTINDFVKFEQYINQKEITVITLPPTYVVHLDPERILSIQTLITAGSATSPSLVNKWKEKVTYINAYGPTETTICATTWVATKETIGHSVPIGAPIQNTQIYIVDENLQLKSVGEAGELCIGGEGLARGYWKRPELTSQKFVDNPFVPGEKLYKTGDQARWLSDGNIEYLGRIDNQVKIRGHRVELEEVESILLKHMYISETAVSVHKDHQEQPYLCAYFVSEKHIPLEQLRQFSSEELPTYMIPSYFIQLDKMPLTSNGKIDRKQLPEPDLTFGMRVDYEAPRNEIEETLVTIWQDVLGIEKIGIKDNFYALGGDSIKAIQVAARLHSYQLKLETKDLLKYPTIDQLVHYIKDSKRRSEQGIVEGEIGLTPIQHWFFEQQFTNMHHWNQSYMLYRPNGFDKEILLRVFNKIVEHHDALRMIYKHHNGKIVQINRGLEGTLFDFYTFDLTANDNEQQVICEESARLQNSINLEVGPLVKIALFHTQNGDHLFMAIHHLVVDGISWRILFEDLATAYEQAMHQQTIALPEKTDSFKDWSIELEKYANSELFLEEAEYWHHLNYYTENVQIKKDYVTMNNKQKNIRYVGMELTIEETEKLLKNVNKAYRTEINDILLTALGFALKEWADIDKIVINLEGHGREEILEQMNIARTVGWFTSQYPVVLDMQKSDDLSYQIKLMKENLRRIPNKGIGYEIFKYLTTEYLRPVLPFTLKPEINFNYLGQFDTDVKTELFTRSPYSMGNSLGPDGKNNLSPEGESYFVLNINGFIEEGKLHITFSYNEQQYKEDTIQQLSRSYKQHLLAIIEHCVQKEDTELTPSDFSFKELELEEMDDIFDLLADSLT
In the case of B2, the Km [6] is reported as 14 ± 5 µM, the kcat [6] is reported as 0.35 ± 0.0333 s⁻¹ and the kcat/Km [6] is reported as 25000 M⁻¹ s⁻¹. The Km [7] was 20 ± 2 µM, the kcat [7] was 0.458 ± 0.0133 s⁻¹ and the kcat/Km [7] was 23300 M⁻¹ s⁻¹. It also gave a Km [8] of 14 ± 3 µM, a kcat [8] of 0.517 ± 0.0333 s⁻¹ and a kcat/Km [8] of 36700 M⁻¹ s⁻¹.
